Laboratory results taken from the supplement of paper PMC9170038.

Test system: MS2 coat protein
Test: apparent KD of MS2 coat protein; designed switch direction (-1 OFF switch, 1 ON switch): -1; higher = weaker reporter binding
Procedure, shortened: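 Stalled E. coli RNA polymerase transcribed designed RNA switches on Illumina chips, which were then titrated with SNAP-549-labelled MS2 coat protein, doubling from 0.7 or 1.5 nM to 3 µM. Steps lasted from 0.8–1.5 h at the lowest concentration to 10–20 min at the highest. The apparent KD is each design's median over clusters of curve-fitted normalised fluorescence.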

[1] = input ligand: microRNA oligo, concentration not stated
[2] = Eterna round: R95, input ligand: microRNA oligo, concentration not stated
[3] = Eterna round: R95, input ligand: FMN 200 uM
[4] = Eterna round: R95, input ligand: none

Sequence | apparent KD of MS2 coat protein (input ligand: FMN 200 uM) | apparent KD of MS2 coat protein (input ligand: none) | apparent KD of MS2 coat protein [1] | apparent KD of MS2 coat protein [2] | apparent KD of MS2 coat protein [3] | apparent KD of MS2 coat protein [4]
UAUUAGCAAGCGAGAUCCCACAUGAGGAUCACCCAUGUGCUCGUCUGCUCCAGAAUUACUGGAGCAGCUCGUCUUAU [Winner reversed engineered 19] (Eterna round: R97, puzzle: Sensor, turn-off variant 1) | 21.7 nM | 22.4 nM |  |  |  | 
CCACGUCCGUACGUGUACUUGUCUCCUGAGAGCACGGGCACAUGAGGAUCACCCAUGUUUUUGCUCGUCUUAUGAGC [JR_Sensorv2_tov2_Sub716] (Eterna round: R96, puzzle: Sensor v2, turn-off variant 2) | 13.8 nM | 17.7 nM | 25.4 nM |  |  | 
GCGUACUGAGGAUAUACAUGAGGAUCACCCAUGUGACUAAGAUUUUAGUGAUGAUUUUGUAGAAGGCAGUAUGC [JR_Ex3_Sub061] (Eterna round: R97, puzzle: Exclusion 3) | 344 nM | 91.4 nM |  |  |  | 
CCGAAUAAGCAGGAUAUCGUAUCGGAAACGAUACGAGAAGGGCUAACAUGAGGAUCACCCAUGUUCCUUAACGG [Fiskers Ex 6 - 15] (puzzle: Exclusion 6) |  |  |  | 19.2 nM |  | 
GCGUAUGAGCAGGAUAUCCGACGGGAAUCCAAAGGAGAAGGGCUCACAUGAGGAUCACCCAUGUGGUCCUAAAC [Vequat] (puzzle: Exclusion 6) |  |  |  | 19.4 nM |  | 
UCAAGUAUGUAGGAUAUCGAUGUCGAAAGACAUCGAGAAGGACGUACAUGAGGAUCACCCAUGUAACUUGCAUG [Exclusion 6 - B - 10:f] (puzzle: Exclusion 6) |  |  |  | 44.6 nM | 32.2 nM | 42.3 nM
GUUUUGAUAGGAUAUACAUGAGGAUCACCCAUGUCCCACCCGUUACCUCUGACCCUAUGUAGAAGGAUCGUUUA [Exy#15] (Eterna round: R97, puzzle: Exclusion 3) | 27.5 nM | 37.2 nM |  |  |  | 
UUCUUUACACGAGGAUAUCAUACAUGAGGAUCACCCAUGUGGCUGUGUCUGUUUUUAUGUAUUAUUGAGAAGGCGUUUUUCUUU [JR_ExcNG2_Sub075] (Eterna round: R96, puzzle: Exclusion NG 2) | 105 nM | 33 nM | 28.3 nM |  |  | 
GAUAUCUCAGGAUAUACAUGCCCUCCGAAACGGAGUCAUGAACAUGAGGAUCACCCAUGUAGAAGGGAGAUAUC [Alacar 2] (Eterna round: R97, puzzle: Exclusion 2) | 25.5 nM | 15.8 nM |  |  |  | 
UCCUCACCUUAGGAUAUCUUGACGGGACUCUCAGGAGAAGGAAGGACAUGAGGAUCACCCAUGUUCAAAACAAC [EX6 B.18] (Eterna round: R97, puzzle: Exclusion 6) | 50.2 nM | 23.2 nM |  |  |  | 
AAAAUAACAUGAGGAUCACCCAUGUAAUUGGGUAGUCCGAGCGAGGAUAUCCUCGCCGGAAAAGAGGAGAAGGCGCAAUGAAAG [Usxeeran] (Eterna round: R96, puzzle: Exclusion NG 3) | 882 nM | 509 nM | 424 nM |  |  | 
AGUGCGUAUGUGAGGAUAUGCUGGUCCUUGGAUCGGCAGAAGGCACAUGAGGAUCACCCAUGUGGUGUCGUACA [salish99_Bmod_ex4_085] (puzzle: Brourd's mod of Exclusion 4) |  |  |  | 257 nM | 21.5 nM | 263 nM
AGGAUGUGAGGAUAUCCAUCCCGCGAAUACGGGUAAUAAAUGGAGAAGGCACAUGAGGAUCACCCAUGUGAUGA [Ceersois] (Eterna round: R97, puzzle: Exclusion 4) | 262 nM | 54.1 nM |  |  |  | 
AGUGUAGCAGGAUAUACAUGAGGAUCACCCAUGUUUCCGGGACCAGAGCAUCUGCCAUGUAGAAGGGCUGCCUU [Eternabot (L2) Solution 80] (Eterna round: R97, puzzle: Exclusion 3) | 275 nM | 225 nM |  |  |  | 
UUGAGCAGACGGAGAUCCAACAUGAGGAUCACCCAUGUCUCAUAAGCUUUUUGUUCAUCUUAUUGUACCUUGGUGCA [Mat - Sensor v3 - turn-off var 1 - JL Mod - D24] (puzzle: Sensor v3, turn-off variant 1) |  |  |  | 17 nM | 71.3 nM | 64.1 nM
GUUGUUUAUGUAGGAUAUGCCUGGCGUGCCUUUGCAGAAGGACAUGAGGAUCACCCAUGUAACAUGAGGCUCACCCAUGUCGCA [salish99_ExNG1_r04_109] (Eterna round: R96, puzzle: Exclusion NG 1) | 758 nM | 599 nM | 244 nM |  |  | 
AAGAAUUACAUGAGGAUCACCCAUGUAGAGUGGGAAGAGAGAUAGGAUAUGAUGUGAGAAUCAUAUCAGAAGGAUCGAGACUCA [AK ExNG3-2] (Eterna round: R96, puzzle: Exclusion NG 3) | 144 nM | 138 nM | 105 nM |  |  | 

Sequence | apparent KD of MS2 coat protein (input ligand: FMN 200 uM) | apparent KD of MS2 coat protein (input ligand: none) | apparent KD of MS2 coat protein [1] | apparent KD of MS2 coat protein [2] | apparent KD of MS2 coat protein [3] | apparent KD of MS2 coat protein [4]
ACAUGAGGAUCACCCAUGUAAUGAUGGGUACUAUAUUAUUCGUAGGAUAUCGUUGUUAGUUUGUUCGAGAAGGACGAUUGCCUU [JR_ExcNG3_Sub054] (Eterna round: R96, puzzle: Exclusion NG 3) | 612 nM | 520 nM | 385 nM |  |  | 
AAAUAACAAGCAAAAAACCACAUGAGGAUCACCCAUGUAAAGGGUGAAGUUCGCACCCAAAAAUAAAAUAAAAAAUA [Mat - Sensor v2 - Eli mod - 173] (Eterna round: R96, puzzle: Sensor v2, turn-off variant) | 29.1 nM | 28.3 nM | 75 nM |  |  | 
GCAAGCUUUUAGGUUUUCAACAUGAGGAUCACCCAUGUUCGUCUUGUGCUCGGGCUUGGGCGGUGUCCGGGUUUGGG [JL TOV1 3.75 sellena mod] (Eterna round: R97, puzzle: Sensor, turn-off variant 1) | 40.4 nM | 43.7 nM |  |  |  | 
GUCAGGUAUCGAGGAUAUGUGAAAGGAAGUGUAGCAGAAGGCGAGGGCUUGACAUGAGGAUCACCCAUGUGAAGUGAUUCGAAG [17th something] (Eterna round: R96, puzzle: Exclusion NG 1) | 76.4 nM | 64.2 nM | 41 nM |  |  | 
GCACGGUUGGUAGGAUAUCAUUGCGAUUAGCUAUGAGAAGGACCACAUGAGGAUCACCCAUGUCCUCUAAUUAGCCUACCGUGC [Eli exng1 - 015] (Eterna round: R96, puzzle: Exclusion NG 1) | 383 nM | 151 nM | 109 nM |  |  | 
CGGUGCUCGUGGAAACAUGAGGAUCACCCAUGUUGAGUUAGCGAGGAUAUCGGUAACACAUGUCACGAGAAGGCGCGAACCAGA [Ex NG3 #32] (Eterna round: R96, puzzle: Exclusion NG 3) | 18.7 nM | 14.9 nM | 9.96 nM |  |  | 
UCGCUGCGAGGAUAUACAUGAGGAUCACCCAUGUACGGGUCCGGGUCUAAGUUGAUAAGUAGAAGGCGCAGUGA [JL Laongeedie mod 12] (puzzle: Exclusion 3) |  |  |  | 114 nM |  | 
UUUUAGAGAGGAUAUAUAAUGUGAAACAUGAGGAUCACCCAUGUAAUAUUAUGGAUGUAAAUAGAAGGCUCAUUUA [JL-ex5-3.04] (puzzle: Exclusion 5) |  |  |  | 36.1 nM | 31.9 nM | 35.1 nM
GUUAACGUAGGAUAUUAGUACAUGAACAUGAGGAUCACCCAUGUGAGGUAGGUCUAAGAAUAAGAAGGGCGAAGAA [EX5 #27] (Eterna round: R97, puzzle: Exclusion 5) | 108 nM | 185 nM |  |  |  | 
UUAGCGUAAGUAAGGAUAUGCUGGUCGAAAGAUCAGCAGAAGGUACAUGAGGAUCACCCAUGUGGAUUCGUUAU [Mod of JL 11 - Jieux - Brourd's mod of Exclusion 4] (Eterna round: R97, puzzle: Brourd's mod of Exclusion 4) | 73 nM | 27.5 nM |  |  |  | 
UUUGUUUUGGUAGGAUAUACUUUUAAUUUCUCUUUCCUUACAUGAGGAUCACCCAUGUUUACAUUGUAGAAGGACCACUUUGUU [JR_ExcNG2_Sub050] (Eterna round: R96, puzzle: Exclusion NG 2) |  |  | 15.9 nM |  |  | 
UAUUAGCAAGCGAGGUCCCACAUGAGGAUCACCCAUGUGCUCGUCUUAUAAGGUACUGUGACGAUAGUCACGGUACC [Mat - Sensor, turn-off var - Eli Mod - D33] (Eterna round: R97, puzzle: Sensor, turn-off variant 1) | 14.6 nM | 14.6 nM |  |  |  | 
AUAAUGUAAGGAUAUCAGUCGACUAGCGAUAGCUAGUCGACUGAGAAGGUACAUGAGGAUCACCCAUGUGAUUA [E4/10-A4] (Eterna round: R97, puzzle: Exclusion 4) | 421 nM | 167 nM |  |  |  | 
AGCUAGUCAGGAUAUUCUAAUAAUUACAUGAGGAUCACCCAUGUGAAUGGACAAGGGUGUGAAGAAGGGACUAGCG [Omei Ex5 A9] (Eterna round: R97, puzzle: Exclusion 5) | 429 nM | 1230 nM |  |  |  | 
CCAAACAGAGGAUAUGCGAAUAAAUAAAACUUUUUUUUUUAACAUGAGGAUCACCCAUGUAGAAGGCUGAAACC [Ex2 #41] (Eterna round: R97, puzzle: Exclusion 2) | 29.3 nM | 27.6 nM |  |  |  | 
CAGUACUGAGGAUAUACAUGAGGAUCACCCAUGUGAUUGAGUGCACGCGUACGUGUACGUAGAAGGCAGUACUG [JL 3.27 m11] (Eterna round: R97, puzzle: Exclusion 3) | 194 nM | 18.1 nM |  |  |  | 
